Reference: patent US20230357429A1 (JANUX THERAPEUTICS, published 2023)
Numbering of substitutions follows the chain as printed. Names may count otherwise. Like-named read-outs stand apart in the source and are kept apart here. Where no end group is shown, it is not given here.

T1: Human TROP2 Full length (human, UniProt P09758 31-323)
T1 sequence: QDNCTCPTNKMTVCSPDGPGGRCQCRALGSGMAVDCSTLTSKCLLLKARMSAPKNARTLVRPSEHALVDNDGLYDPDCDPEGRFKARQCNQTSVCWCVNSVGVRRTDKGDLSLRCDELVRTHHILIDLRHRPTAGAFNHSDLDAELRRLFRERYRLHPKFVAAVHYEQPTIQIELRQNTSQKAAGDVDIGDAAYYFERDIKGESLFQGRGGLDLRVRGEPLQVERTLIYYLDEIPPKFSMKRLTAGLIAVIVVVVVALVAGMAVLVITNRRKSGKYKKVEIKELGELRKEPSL

T2: Cyno TROP2 Full length (cynomolgus monkey, UniProt P09758 31-323 (human entry))
T2 chain: T1 sequence with M32V, S63N, I200V, M262V, T268S

T3: Human TROP2 ECD (31-274 AA) (human, UniProt P09758 31-274, biotinylated)
T3 construct: also called biotinylated TROP2; TROP2-biotin
T3 sequence: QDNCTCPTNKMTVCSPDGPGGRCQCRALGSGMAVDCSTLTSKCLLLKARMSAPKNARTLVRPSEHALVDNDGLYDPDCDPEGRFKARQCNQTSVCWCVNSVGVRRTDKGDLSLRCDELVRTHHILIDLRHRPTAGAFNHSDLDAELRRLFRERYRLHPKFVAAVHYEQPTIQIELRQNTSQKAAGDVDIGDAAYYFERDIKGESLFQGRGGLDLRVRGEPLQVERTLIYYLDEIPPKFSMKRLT

B1: PC-34 (bispecific antibody)
light: GGVDFCALYHWPICYQGGGGSGGLSGRSDAGSPLGLAGSGGSDIQLTQSPSSLSASVGDRVSITCKASQDVSIAVAWYQQKPGKAPKLLIYSASYRYTGVPDRFSGSGSGTDFTLTISSLQPEDFAVYYCQQHYITPLTFGAGTKVEIKRTVAAPSVFIFPPSDEQLKSGTASVVCLLNNFYPREAKVQWKVDNALQSGNSQESVTEQDSKDSTYSLSSTLTLSKADYEKHKVYACEVTHQGLSSPVTKSFNRGEC
heavy: not shown
notes: Masked polypeptide complex: anti-TROP2 F108A, anti-CD3 H101A; CD3 mask …
B2: PC-42 (bispecific antibody)
light: B1 light
heavy: EVQLVESGGGLVQPGGSLRLSCAASGSTFYTAVMGWVRQAPGKGLEWVAAIRWTALTTSYADSVKGRFTISRDGAKTTLYLQMNSLRPEDTAVYYCAARGTLGLFTTADSYDYWGQGTLVTVSSGGGGSGGGSGGASQCLGPEWEVCPYGGGGSGGGLSGRSDAGSPLGLAGSGGGSEVQLVESGGGLVQPGGSLKLSCAASGFTFNKYAMNWVRQASGKGLEWVGRIRSKYNNYATYYADSVKDRFTISRDDSKNTAYLQMNSLKTEDTAVYYCVRHGNFGNSYISYWAYWGQGTLVTVSSGGGGSGGGGSGGGGSQTVVTQEPSFSVSPGGTVTLTCRSSTGAVTSGNYANWVQQTPGQAPRGLIGGTKFLAPGVPDRFSGSILGNKAALTITGAQADDESDYYCVLWYSNRWVFGGGTKLTVLGGGGSQVQLQQSGSELKKPGASVKVSCKASGYTFTNYGMNWVKQAPGQGLKWMGWINTYTGEPTYTDDFKGRFAFSLDTSVSTAYLQISSLKADDTAVYFCARGGFGSSYWYADVWGQGSLVTVSSASTKGPSVFPLAPSSKSTSGGTAALGCLVKDYFPEPVTVSWNSGALTSGVHTFPAVLQSSGLYSLSSVVTVPSSSLGTQTYICNVNHKPSNTKVDKKVEPKSC
notes: Masked polypeptide complex: anti-TROP2 F108A, anti-CD3 with P41S, A49G, N87S ; E227D
B3: PC-39 (bispecific antibody)
light: B1 light
heavy: EVQLVESGGGLVQPGGSLRLSCAASGSTFYTAVMGWVRQAPGKGLEWVAAIRWTALTTSYADSVKGRFTISRDGAKTTLYLQMNSLRPEDTAVYYCAARGTLGLFTTADSYDYWGQGTLVTVSSGGGGSGGGSGGYLCGPDGDETLACYGGGGSGGGLSGRSDAGSPLGLAGSGGGSEVQLVESGGGLVQPGGSLKLSCAASGFTFNKYAMNWVRQASGKGLEWVGRIRSKYNNYATYYADSVKDRFTISRDDSKNTAYLQMNSLKTEDTAVYYCVRHGNFGNSYISYWAYWGQGTLVTVSSGGGGSGGGGSGGGGSQTVVTQEPSFSVSPGGTVTLTCRSSTGAVTSGNYANWVQQTPGQAPRGLIGGTKFLAPGVPDRFSGSILGNKAALTITGAQADDESDYYCVLWYSNRWVFGGGTKLTVLGGGGSQVQLQQSGSELKKPGASVKVSCKASGYTFTNYGMNWVKQAPGQGLKWMGWINTYTGEPTYTDDFKGRFAFSLDTSVSTAYLQISSLKADDTAVYFCARGGFGSSYWYADVWGQGSLVTVSSASTKGPSVFPLAPSSKSTSGGTAALGCLVKDYFPEPVTVSWNSGALTSGVHTFPAVLQSSGLYSLSSVVTVPSSSLGTQTYICNVNHKPSNTKVDKKVEPKSC
notes: Masked polypeptide complex: anti-TROP2 F108A, anti-CD3 with P41S, A49G, N87S ; E227D; CD3 mask YLCGPDGDETLACY
B4: PC-52 (bispecific antibody)
light: B1 light
heavy: not shown
notes: Masked polypeptide complex: anti-TROP2 F108A, anti-CD3 N236A
B5: PC-46 (bispecific antibody)
light: B1 light
heavy: not shown
notes: Masked polypeptide complex: anti-TROP2 F108A, anti-CD3 N30Q, I109V, G172A, V231A
B6: PC-37 (bispecific antibody)
light: B1 light
heavy: not shown
notes: Masked polypeptide complex: anti-TROP2 F108A, anti-CD3 F240A; CD3 mask …
B7: PC-45 (bispecific antibody)
light: B1 light
heavy: not shown
notes: Masked polypeptide complex: anti-TROP2 F108A, anti-CD3 N30Q, I109V, G172A, V231A; CD3 mask …
B8: PC-35 (bispecific antibody)
light: B1 light
heavy: not shown
notes: as for B1
B9: PC-44 (bispecific antibody)
light: B1 light
heavy: not shown
notes: as for B7
B10: PC-51 (bispecific antibody)
light: B1 light
heavy: not shown
notes: Masked polypeptide complex: anti-TROP2 F108A, anti-CD3 L232A
B11: PC-41 (bispecific antibody)
light: B1 light
heavy: B3 heavy with Y136V, L137Y, D141E, G142F, T145S, L146V, A147G, Y149A
notes: as for B2
B12: PC-36 (bispecific antibody)
light: B1 light
heavy: not shown
notes: Masked polypeptide complex: anti-TROP2 F108A, anti-CD3 F104A
B13: PC-38 (bispecific antibody)
light: B1 light
heavy: not shown
notes: as for B6
B14: PC-50 (bispecific antibody)
light: B1 light
heavy: not shown
notes: Masked polypeptide complex: anti-TROP2 F108A, anti-CD3 H101A

How the values were obtained:
[1] = molecular target: T1, Human TROP2 Full length; assay: cell-based or functional assay
[2] = molecular target: T2, Cyno TROP2 Full length; assay: cell-based or functional assay
[3] = molecular target: T4, CD3 (human, UniProt P07766 23-126, limits assumed, biotinylated); assay: ELISA; biotinylated CD3 on neutravidin plates, PC titrated, HRP secondary
T4 construct: also called biotinylated CD3; CD3-biotin
Protocol: (§1) TROP2 TCEs and masked polypeptide complexes (PCs) were evaluated for their ability to bind TROP2 and CD3 by ELISA. […] The TCE or PC constructs diluted in buffer were then added to the antigen coated plates. Binding was measured using a standard horse radish peroxidase secondary antibody. The concentration of TCE or PC required to achieve 50% maximal signal (EC₅₀) was calculated.

[4] = molecular target: T3, Human TROP2 ECD (31-274 AA); assay: ELISA; biotinylated TROP2 on neutravidin plates, PC titrated, HRP secondary
Protocol: as §1

[5] = molecular target: T5, TBD-11 (HC R98A); assay: competition ELISA, peptide vs Fab binding to captured biotin-TROP2
T5 construct: Fab; also called HC R98A mutant
Protocol: (§2) ELISA-based competitive inhibition studies were used to test the ability of each peptide to inhibit the TBDs from binding to TROP2. […] Inhibitory peptides were titrated in a dilution series and pre-incubated with a constant concentration of antibody. Inhibitory peptide and antibody mixtures were then incubated on the antigen captured plates. A horseradish peroxidase conjugate secondary antibody was then used to detect the antibody binding to the plate-bound antigen. The ELISA signal was plotted versus log-scale peptide concentration. A dose dependent decrease of signal was indicative of peptides that compete for antibody binding to the cognate antigen. Graphpad Prism software was used to calculate the inhibitory concentrations of peptide required to achieve 50% maximal signal (IC₅₀s).

[6] = molecular target: T6, TBD-17 (HC S104A); assay: as above
T6 construct: Fab; also called HC S104A mutant
Protocol: as §2

[7] = molecular target: T7, TBD-21 (HC F108A); assay: as above
T7 construct: Fab; also called HC F108A mutant
Protocol: as §2

[8] = molecular target: T8, TBD-22 (HC D109A); assay: as above
T8 construct: Fab; also called HC D109A mutant
Protocol: as §2

[9] = molecular target: T5, TBD-11 (HC R98A); assay: as above; remark: listed apart in the source
Protocol: as §2

[10] = molecular target: T6, TBD-17 (HC S104A); assay: as above; remark: listed apart in the source
Protocol: as §2

[11] = molecular target: T7, TBD-21 (HC F108A); assay: as above; remark: listed apart in the source
Protocol: as §2

[12] = molecular target: T8, TBD-22 (HC D109A); assay: as above; remark: listed apart in the source
Protocol: as §2

T6 sequence (VH, as listed by the source, chain 1 of 2, one chain of several): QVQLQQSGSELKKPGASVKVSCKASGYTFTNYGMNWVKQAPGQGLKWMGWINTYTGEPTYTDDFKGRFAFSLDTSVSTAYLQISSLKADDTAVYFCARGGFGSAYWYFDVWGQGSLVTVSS
T8 sequence (VH, as listed by the source, chain 1 of 2, one chain of several): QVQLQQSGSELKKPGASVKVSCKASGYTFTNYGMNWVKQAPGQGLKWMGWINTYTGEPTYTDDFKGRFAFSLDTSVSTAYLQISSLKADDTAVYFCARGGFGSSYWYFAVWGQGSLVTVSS
T5 sequence (VH, as listed by the source, chain 1 of 2, one chain of several): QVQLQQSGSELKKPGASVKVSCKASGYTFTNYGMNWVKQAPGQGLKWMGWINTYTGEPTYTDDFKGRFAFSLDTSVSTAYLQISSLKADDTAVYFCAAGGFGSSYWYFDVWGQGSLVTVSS
T4 sequence (P07766 23-126 limits assumed): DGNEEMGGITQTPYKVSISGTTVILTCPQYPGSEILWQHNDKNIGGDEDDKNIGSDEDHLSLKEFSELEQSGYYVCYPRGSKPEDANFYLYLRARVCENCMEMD

Row | Binder | H292 Cytotoxicity EC50 (pM) [1] | CyTROP2 HEK293 EC50 (pM) [2] | EC50 [3] | EC50 [4] | other results
1 | B1 | > 100000 pM | 16500 pM | 283 nM | 828 nM | 
2 | B2 | 12200 pM |  | 60.2 nM | 630 nM | 
3 | B3 | 13700 pM | 665 pM | 136 nM | 1090 nM | HCT116 Cytotoxicity EC50 (pM) [1]: > 100000 pM
4 | B4 | 98300 pM | 37700 pM | 242 nM | 1210 nM | 
5 | B5 | > 100000 pM | 45600 pM | 556 nM | 2550 nM | 
6 | B6 | > 100000 pM | > 100000 pM | 1300 nM | 1510 nM | HCT116 Cytotoxicity EC50 (pM) [1]: > 100000 pM
7 | B7 | > 100000 pM |  | 97 nM | 4010 nM | 
8 | B8 | > 100000 pM | > 100000 pM | 30 nM | 2080 nM | HCT116 Cytotoxicity EC50 (pM) [1]: > 100000 pM
9 | B9 | 51000 pM |  | 77.3 nM | 1140 nM | 
10 | B10 | > 100000 pM | 79300 pM | 410 nM | 1160 nM | 
11 | B11 | 47000 pM | 5130 pM | 230 nM | 1380 nM | 
12 | B12 | > 100000 pM | > 870000 pM | 2920 nM | 1470 nM | 
13 | B13 | > 100000 pM |  | 77.6 nM | 3020 nM | 
14 | B14 | > 100000 pM | > 100000 pM | 454 nM | 1220 nM | 
15 | EDFCKLYNWPICYQ (cysteine pairing not given here; also: biotinylated, site not given here) [Peptide-7] |  |  |  |  | IC50 [5]: 1000 nM; IC50 [6]: 3770 nM; IC50 [7]: 4010 nM; IC50 [8]: 130 nM
16 | VDFCGLYHWPICYQ (cysteine pairing not given here; also: biotinylated, site not given here) [Peptide-8] |  |  |  |  | IC50 [5]: 300 nM; IC50 [6]: 890 nM; IC50 [7]: 610 nM; IC50 [8]: 20 nM; IC50 [9]: 620 nM; IC50 [10]: 870 nM; IC50 [11]: 1010 nM; IC50 [12]: 80 nM
